Assay results: the DeepSol protein solubility set

Assay: soluble on expression in E. coli; label from the status in PepcDB or PDB records

Sequence	soluble on expression in E. coli
MGASKYDVKRLVDDYVNRLAKNGVLPDVIDKEPILPRVTLPESEITSQSYRKYPKKPKAIGKVGSTGGNRNGMGAIHPTLISYPEEQRKTNSRVKNNRSNYHIGNIGNIGGNIGNGQKMNRNKNGGRNQGGNHPDNMGIPMFPIARPTPYDLAEYIERGLNTGRSNHRTPQNFRRYPEHECDYYAGPCATSF	not soluble
AYTTFSQTKNDQLKEPMFFGQPVNVARYDQQKYDIFEKLIEKQLSFFWRPEEVDVSRDRIDYQALPEHEKHIFISNLKYQTLLDSIQGRSPNVALLPLISIPELETWVETWAFSETIHSRSFTHIIRNIVNDPSVVFDDIVTNEQIQKRAEGISSYYDELIEMTSYWHLLGEGTHTVNGKTVTVSLRELKKKLYLCLMSVNALEAIRAYVSFACSFAFAERELMEGNAKIIRLIARDEALHLTGTQHMLNLLRSGADDPEMAEIAEECKQECYDLFVQAAQQEKDWADYLFRDGSMIGLNKDILCQYVEYITNIRMQAVGLDLPFQTRSNPIPWINTWLVSDNVQVAPQEVEVSSYLVGQIDSEVDTDDLSNFQL	soluble
MGSDKIHHHHHHMQQEQRILFKNDTGDYAAVAAGEESVLQAGLRQSVPLNYHCASGSCGSCKARLIQGALKVHTGTDFIQVSHTADQVCEYPEVHLCQSHAVSDCVFEALYDKNVPPDLVTPKHYAASLSDVRPLGSGLYRLLVDFDDSIRFLPGQYVMLATEAGGRARAYSVANFAQDSRQLEFILSCNPNGAMSPQLCDINNIGMQLQGYGPLGKAYIRPSKDKEIVMLVGGSGVSVALSTLEWAISSHYIDDRHLTIFWGVRDTSPIDLIGVLNRYAAVHSNLRVAVCSDISPSVQDRVRFPHIEFFTGYPADHIVNDASISWEGKEVYISGPPPMVDHTVRQLMINTEIDALDIKCDSFV	not soluble
MIDFACKEFKVEDVIKCALNLTKADLNVMKSFLNEPDRWIDTDALSKSLKLDVSTVQRSVKKLHEKEILQRSQQNLDGGGYVYIYKIYSKNQIRNIIQKIVQSWADRLGQELKEWENGGE	not soluble
MAAAVRQDLAQLMNSSGSHKDLAGKYRQILEKAIQLSGTEQLEALKAFVEAMVNENVSLVISRQLLTDFCTHLPNLPDSTAKEVYHFTLEKIQPRVISFEEQVASIRQHLASIYEKEEDWRNAAQVLVGIPLETGQKQYNVDYKLETYLKIARLYLEDDDPVQAEAYINRASLLQNESTNEQLQIHYKVCYARVLDYRRKFIEAAQRYNELSYKTIVHESERLEALKACTGTAPILVSAGDSSALGGRAIFFKDKRCQQLAAYGILEKMYVDRIIRGNQLQEFAAMLMPHQKATTADGSSILDRAVIEHNLLSASKLYNNITFEELGALLEIPAAKAEKIASQMITEGRMNGFIDQIDGIVHFETREALPTWDKQIQSLCFQVNNLLEKISQTAPEWTAQAMEAQMAQ	soluble
MTKITVVGAGSWGTALAMVLADNGHDVRIWGNRSELMDEINTKHENSRYLPGITLPSTIVAYSSLEEALVDVNVVLIVVPTKAYREVLQDMKKYVAGPTTWIHASKGIEPGTSKRISEVIEEEIPEDLIKDVVVLSGPSHAEEVGLRQATTVTSAAKRMEAAEEVQDLFMNSYFRVYTNPDIVGVELGGALKNIIALAAGITDGLGLGDNAKAALMTRGLTEIARLGRKMGGNPLTFAGLTGMGDLIVTCTSVHSRNWRAGNMLGKGHSLEEVLESMGMVVEGVRTTKAAHELAEKMEVEMPITAALYDVLFNGNNVKDAVGSLMGRVRKHEVEAIPDLL	not soluble
MSLENICDMNNKVKVAVLDTGIDKEHDYLKDNLVGGIAFECMHDYIFISDKFDDEDGHGTACASIIKKEYEDVELFVIKILRKDGITNIKVLEEALRYLLDTNIRLINLSLSVIGVESVKGLFEVCYELFRKGKIIVCSLANDFDLSYPAMFNNVIGVRGFTLDGDDSFWYNKKYDVQCVMDSNSYISCDINNSYRLPPKCNSYLSAKLTGKIAKILSEKPGITISDLNDKLESLATRNHWDSCDFDECSRIVNFKLDLYDKENALFEGHHHHHH	soluble
LGRLFGTDGVRGVANLELTAELAYKLGQAGAYVLTSETKHTPKILVGMDTRISGDMLEASLVAGLCSVGAEVACLGIAPTPTVAYLTRYYNADAGVVISASHNPYEFNGIKFFNSKGYKLSDALEERIESIILDNSEKIQLPTGEKIGRKIEIESPLDDYVNFIKSTIKGDLKGLKVAIDCANGASYQVAPVTFFELGADVCVINNEPDGVNINKDCGSTHIEQLQKFVIESGADVGLAFDGDADRVLAVDENGNMVDGDQIMAIIGLELKKQGKLTNNTIVATVMSNLGLDIMAKREGINIVKTKVGDRYVLENMLENGHVLGGEQSGHIIFLEHSTTGDGILTGAQLLNVVKSSGKKLSELASIMQVLPQVLMNARVSNQNKEKYLEDEVICEMCKELENEFRDEGRVLIRPSGTEPLVRVMIEGKDRDYIEKRALELVKVIEERLG	soluble
KETKTTVHKFGLEPPSELIQKQLRANLDDDIWEVIRSRKIDGEHVILDKDYFFRKHVPHLTKEICENSIYEYIEGELGLSISYAQKEIVAEPCTDEDRELLDLRGYDHMVVVRNYVFLEDTSLFQYTESRHRL	not soluble
MGGSHHHHHHGMASALFRMLNSSFEDDPFFSESILAHRENMRQMIRSFSEPFGRDLLSISDGRGRAHNRRGHNDGEDSLTHTDVSSFQTMDQMVSNMRNYMQKLERNFGQLSVDPNGHSFCSSSVMTYSKIGDEPPKVFQASTQTRRAPGGIKETRKAMRDSDSGLEKMAIGHHIHDRAHVIKKSKNKKTGDEEVNQEFINMNESDAHAFDEEWQSEVLKYKPGRHNLGNTRMRSVGHENPGSRELKRREKPQQSPAIEHGRRSNVLGDKLHIKGSSVKSNKK	not soluble
MSSQKSSHHKADSKMEQDNNRKAWISQPSGLNFVWGGDSRYWVIPKEPRMPAELKMVSWLEVTGSFDKIEPGKTYRIGFKISFKPDATGWDKAPVFMSAKIGKKGKTVWKRIKSVSQNFGILKGGSEPVNIPDESDGLFEILVSPTALNQDTKLQFGLYEVWTGRWKTGLLIHEAFVQEV	soluble
ATMPLSPLLTAVIETTLNTLINDDPALGRKLLRLKGKVISLHLRELNQSLTFVFSQRIDVMTGFEGQPDCYLALNLSILPQLREQANITQLIKQDKLELEGDIQLAQKFSELMTDCKPDVEEWLSRITGDVVAHSVVHGVKSIVGALKQQAHKHQNHLAQVLTEEWRIAPPPLEIAYFCDQVDDVKSHAARLEARLNQLLEKA	not soluble
MGSDKIHHHHHHVSPHSPVQLSLPVYLPDDETFNSYYPAAGNDELILSLQASAEGRANKAVYLWGPVKAGRTHLMHATCARANELNRSSFYLPLGIHASISTELLEGLEQLDLVCIDDVDAIAGHPLWEEALFDLYNRVAEHKRCALVVSASATASDAGFALPDLVSRMQWGLTYQLQPMADEEKLAALQRRAAMRGLQLPEDVGRFLLNRLARDLRTLFDVLDRLDKASLVHQRKLTIPFVKEMLRL	not soluble
AHHHHHHGSLEKLLEQAGIKLDFDGEEEKKSEIVDEFSGYKINIAVVGVGGSGNNTISRLYDLGVQGADLIAMNTDAQHLAITKAHKKVLLGKHITQGKGSGGDPKVGYLAAEASAQEIAAAVDGYDLVFITAGMGNGTGTGAAPVVARIVKETARNNGRFQEPLVVSVVTFPFKTEGTVRIEKAKWGIQRLLEYSDTVIIIQNDKLLELVPKLPLQSAFRFADELIARMVKGIVETIKLNSIVNIDFADVYSIMKGGGPALIGIGESDSNNRAVDAVNNALTNKMLDVEFGSGEKALVHFTIGPDVSLEEINKAMEVVYEKLSEKSEIKWGAMVDPEMGKTVRAMVIMTGVRSPYILGNVNALTDSSSWVVPKDRRLIGDPRIEKMFPDFNGSRAGRKRPSVGDAILKELGFKEL	soluble
MQFSCSIPLPATFRPGDILAFHRRDRQEIAERVNHASVQKAMIWCGAPAYLSISFEPGLAKASLVIDGKIAEDRQPIFEGMVRRMLGLTQEIEIFEERYRDHPQLGILIAQQPGLRVPVTATPFEALTWAVTGQQISVNAAVSLRRKLIGATNTPHSCGLFCYPDARRILELPEETLRQAGFSTTKTRTLLALSALVADNELPLDAWVETLPVDVIREKLEAVRGIGPWTVNYGLLRGFGWLDGSLHGDAAVRRGLQALLGAQDKISEENTKVWLAQFSPWRALVGAHLWAAPVAIALEHHHHHH	not soluble
QYRHMIGQDAGYKAAGLYYVPIESLDQQQLPVVIEKLKALPEVEGYTLTTALPASSGQSGDNLIDPVTDRELINVADLFYVDEHYLKVYDIELLEGKNFDAATEKDREIMLSKKAATELARLMNWKDGVIGKNIILTSFGRVVIRGVYDDLMLRRQHLSPYPEKLPSAIVYGDDWLHYLTIRLRHDDARLLHRVNGILSEADPYKETSFLGVEMELLSRFEAAKTFRNT	not soluble
VTEVEQKLQIVHQTLSMLDSHGFENILQEMLQSITLKTGELLGADRTTIFLLDEEKQELWSIVAAGEGDRSLEIRIPADKGIAGEVATFKQVVNIPFDFYHDPRSIFAQKQEKITGYRTYTMLALPLLSEQGRLVAVVQLLNKLKPYSPPDALLAERIDNQGFTSADEQLFQEFAPSIRLILESSRSFYIATQKQRAAAAMMKAVKSLSQSSLDLEDTLKRVMDEAKELMNADRSTLWLIDRDRHELWTKITQDNGSTKELRVPIGKGFAGIVAASGQKLNIPFDLYDHPDSATAKQIDQQNGYRTCSLLCMPVFNGDQELIGVTQLVNKKKTGEFPPYNPETWPIAPECFQASFDRNDEEFMEAFNIQAGVALQNAQLFATVKQQEQGSRSHHHHHH	soluble
MGSDKIHHHHHHTNEDIVKNNVNQPEKVKGNLSLVISSTSNSSRAADNEESGVTDPGIEGESTVTDAVIILNRLDENGNLTKEEFGGYLTKAQLNETTASGETIYNPFFTLANSGWYKVLVVLNPTESIEAIANSQQSTDKSKYEQIAESSYTTTGDITIAAAGQFMMVNKKEIKVDVLSNNYEDPTIKEVEVERVVSKINYVIAKPNNLYPLTVQTTDYAIAETTSGYYIYPDNKAVRLTGLHKAKNLDNDNSDVWIHEGTDGTDRRAFIKTEKTYGQTGEHIFTLLEPFPKFEYYTTSTDGELDWTVKLDKYALVNLSNSVYTARHLTDASWENCKHSASCVFLSKL	not soluble
MGAQYLKRVYLMSVIAETNEALLAKIKALCGDYLREVDTHPGQWDDSSVRRLVRNPPAVYVAWLGQQPNNNPHTVTARWGVFVVAEVLNGQRRNAVGIYQIVETLTAGLHKQRIAPSGMFELQTVQNLWSDTQSGMGVAVYGMYFNAVQPLPDMTSDDTLCDFKIYDHTFNQDKDEHTIDGKTRLTVELPTQSD	not soluble
MKHGILVAYKPKGPTSHDVVDEVRKKLKTRKVGHGGTLDPFACGVLIIGVNQGTRILEFYKDLKKVFWVKMRLGLITETFDITGEVVEERECNVTEEEIREAIFSFVGEYDQVPPAYSAKKYKGERLYKLAREGKIINLPPKRVKIFKIWDVNIEGRDVSFRVEVSPGTYIRSLCMDIGYKLGCGATAVELVRESVGPHTIEESLNVFEAAPEEIENRIIPLEKCLEWLPRVVVHQESTKMILNGSQIHLEMLKEWDGFKKGEVVRVFNEEGRLLALAEAERNSSFLETLRKHERQERVLTLRKVFQTR	soluble
SAKVSELYDVTWEEMRDKMRKWREENSRNSEQIVEVGEELINEYASKLGDDIWIIYEQVMIAALDYGRDDLALFCLQELRRQFPGSHRVKRLTGMRFEAMERYDDAIQLYDRILQEDPTNTAARKRKIAIRKAQGKNVEAIRELNEYLEQFVGDQEAWHELAELYINEHDYAKAAFCLEELMMTNPHNHLYCQQYAEVKYTQGGLENLELSRKYFAQALKLNNRNMRALFGLYMSASHIASNPKASAKTKKDNMKYASWAASQINRAYQFAGRSKKETKYSLKAVEDMLETLQITQS	not soluble
